Source: publication PMC11886506

T1: MdEIL3 DNA-binding domain (His-MBP fusion) (UniProt D5L146 1-311)
T1 sequence: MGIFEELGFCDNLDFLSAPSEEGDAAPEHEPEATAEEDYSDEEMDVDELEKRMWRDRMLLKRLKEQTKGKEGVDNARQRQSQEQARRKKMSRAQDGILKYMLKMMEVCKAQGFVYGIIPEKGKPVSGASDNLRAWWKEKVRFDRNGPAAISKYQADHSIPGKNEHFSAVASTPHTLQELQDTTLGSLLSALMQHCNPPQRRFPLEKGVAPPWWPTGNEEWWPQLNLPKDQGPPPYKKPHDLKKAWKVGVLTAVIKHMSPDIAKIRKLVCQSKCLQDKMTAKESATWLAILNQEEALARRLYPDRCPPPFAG

T2: MdEIL2 DNA-binding domain (His-MBP fusion) (UniProt D5L145 1-311)
T2 sequence: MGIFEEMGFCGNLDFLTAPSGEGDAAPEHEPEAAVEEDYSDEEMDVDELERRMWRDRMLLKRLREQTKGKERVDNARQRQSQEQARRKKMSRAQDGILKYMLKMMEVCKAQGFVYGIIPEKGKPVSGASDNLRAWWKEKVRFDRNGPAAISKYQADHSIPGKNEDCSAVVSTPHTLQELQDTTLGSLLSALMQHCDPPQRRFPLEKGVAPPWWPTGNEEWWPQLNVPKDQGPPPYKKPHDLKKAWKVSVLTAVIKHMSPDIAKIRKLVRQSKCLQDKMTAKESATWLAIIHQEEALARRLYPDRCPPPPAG

T3: MdEIL1 DNA-binding domain (His-MBP fusion) (UniProt D5L144 1-311)
T3 sequence: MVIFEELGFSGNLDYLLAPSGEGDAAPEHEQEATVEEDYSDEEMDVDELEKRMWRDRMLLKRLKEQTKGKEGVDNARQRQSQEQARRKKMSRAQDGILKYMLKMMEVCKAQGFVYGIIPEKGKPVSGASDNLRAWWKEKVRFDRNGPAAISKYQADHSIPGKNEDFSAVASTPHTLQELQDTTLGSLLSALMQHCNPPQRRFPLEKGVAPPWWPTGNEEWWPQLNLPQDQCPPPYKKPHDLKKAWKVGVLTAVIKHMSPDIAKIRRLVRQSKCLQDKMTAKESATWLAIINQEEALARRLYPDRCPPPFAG


Tests used:
Assay in all cases: EMSA
[1] = target: T1, MdEIL3 DNA-binding domain (His-MBP …)
[2] = target: T2, MdEIL2 DNA-binding domain (His-MBP …)
[3] = target: T3, MdEIL1 DNA-binding domain (His-MBP …)
His-MBP = His-MBP (UniProt P0AEX9 27-396)

Row | Binder | binding result [1] | binding result [2] | binding result [3] | binding result (His-MBP)
1 | proMdAFS1 MUT probe (dsDNA) DNA 1: CCCACCCCTCCGGTAGCCTCTTTGATATCCCA DNA 2: TGGGATATCAAAGAGGCTACCGGAGGGGTGGG | no binding | no binding | no binding | –
2 | proMdAFS1 WT probe (dsDNA) DNA 1: CCCACCCCTCCGGAGATTCATTTGATATCCCA DNA 2: TGGGATATCAAATGAATCTCCGGAGGGGTGGG | binds | binds | binds | no binding
